The target of the experiment is T1, recombinant human angiotensin-converting enzyme 2 (human, UniProt Q9BYF1 18-740).
T1 construct: also called rhACE2; hACE2
Nature of the experiment: ELISA. To be noted: both partners purified. Background: An ELISA detects its analyte on a solid surface through an enzyme-linked reagent.

T1 sequence (Q9BYF1 18-740): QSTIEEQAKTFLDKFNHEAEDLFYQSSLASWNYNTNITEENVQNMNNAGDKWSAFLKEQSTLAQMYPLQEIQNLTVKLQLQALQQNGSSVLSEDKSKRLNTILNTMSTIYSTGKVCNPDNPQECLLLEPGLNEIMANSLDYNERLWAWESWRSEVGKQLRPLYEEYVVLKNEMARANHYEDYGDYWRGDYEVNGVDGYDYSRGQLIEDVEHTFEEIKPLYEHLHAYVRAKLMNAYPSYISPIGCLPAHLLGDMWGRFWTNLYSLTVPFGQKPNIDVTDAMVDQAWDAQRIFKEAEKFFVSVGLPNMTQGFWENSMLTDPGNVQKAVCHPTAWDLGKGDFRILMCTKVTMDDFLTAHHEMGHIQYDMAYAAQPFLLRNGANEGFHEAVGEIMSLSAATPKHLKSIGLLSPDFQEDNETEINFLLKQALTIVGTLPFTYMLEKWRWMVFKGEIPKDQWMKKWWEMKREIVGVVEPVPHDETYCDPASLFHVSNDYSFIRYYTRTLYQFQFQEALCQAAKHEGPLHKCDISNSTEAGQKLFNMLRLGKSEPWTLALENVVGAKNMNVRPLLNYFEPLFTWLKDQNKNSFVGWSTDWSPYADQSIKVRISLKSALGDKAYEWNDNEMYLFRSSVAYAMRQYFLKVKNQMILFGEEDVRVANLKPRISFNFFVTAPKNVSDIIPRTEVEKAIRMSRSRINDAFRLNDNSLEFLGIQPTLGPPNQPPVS

B1: recombinant Qβ phage displaying the rhACE2-binding motif S437-492 of SARS-CoV spike fragment F6 on A1 (domain or fragment)
chain: NYKYRYLRHGKLRPFERDISNVPFSPDGKPCTPPALNCYWPLNDYGFYTTTGIGYQ
notes: also called GF6 motif (S437-492)
Consider B1, for which the binding result is recorded as “binds”.

These data come from paper PMC10750099, “Mapping immunological and host receptor binding determinants of SARS-CoV spike protein utilizing the Qubevirus platform” (The Journal of Biological Chemistry, 2023).
